How the values were obtained:
Cre-B1 = biological target: T1, Cre-B1
T1 chain: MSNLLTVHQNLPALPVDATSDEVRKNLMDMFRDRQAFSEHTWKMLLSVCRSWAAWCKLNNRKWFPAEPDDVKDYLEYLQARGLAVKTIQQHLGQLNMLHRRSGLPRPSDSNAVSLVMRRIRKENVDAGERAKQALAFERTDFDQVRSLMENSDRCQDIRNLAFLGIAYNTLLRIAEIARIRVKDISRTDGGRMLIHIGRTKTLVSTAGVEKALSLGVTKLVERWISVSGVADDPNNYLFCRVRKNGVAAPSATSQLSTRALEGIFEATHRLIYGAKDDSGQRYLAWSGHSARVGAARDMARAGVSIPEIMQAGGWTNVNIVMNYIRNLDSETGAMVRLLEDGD

[1] = biological target: Cre-A1 (P1 Bacteriophage) (UniProt P06956); assay: cell-based or functional assay
[2] = biological target: Cre-B1 (P1 Bacteriophage) (UniProt P06956); assay: cell-based or functional assay

B1: Cre-A1 (protein)
chain: MSNLLTVHQNLPALPVDATSDEVRRNLMRMFELRRAFSEHTWKMLLSVCRSWAAWCKLNNRKWFPAEPEDVRDYLLYLQARGLAVKTIQQHLGQLNMLHRRSGLPRPSDSNAVSLVMRRIRKENVDAGERAKQALAFERTDFDQVRSLMENSDRCQDIRNLAFLGIAYNTLLRIAEIARIRVKDISRTDGGRMLIHIGRTKTLVSTAGVEKALSLGVTKLVERWISVSGVADDPNNYLFCRVRKNGVAAPSATSQLSTRALEGIFEATHRLIYGAKDDSGQRYLAWSGHSARVGAARDMARAGVSIPEIMQAGGWTNVNIVMNYIRNLDSETGAMVRLLEDGD
In the case of B1, the “recombinase activity in vitro (loxP excision, gel)” value is reported as “one of the mutants (Cre-A1) was active individually”, the “recombinase activity in vitro (loxP excision, gel)” value (Cre-B1) is reported as “the combined pair of redesigned mutants was active (Cre-A1+Cre-B1” and the RFP positive cells of 7000 sorted, Ai14 mouse ES reporter cells, promoter hbb + cmv, replicate 1 [1] is reported as 3850 cells. For the same binder, the RFP positive cells of 7000 sorted, Ai14 mouse ES reporter cells, promoter hbb + cmv, replicate 2 [1] was 3530 cells, the RFP positive cells of 7000 sorted, Ai14 mouse ES reporter cells, promoter hbb + cmv, replicate 3 [1] was 3690 cells and the RFP positive cells of 7000 sorted, Ai14 mouse ES reporter cells, promoter hbb + sp1, replicate 1 [1] was 3750 cells. For the same binder, the RFP positive cells of 7000 sorted, Ai14 mouse ES reporter cells, promoter hbb + sp1, replicate 2 [1] was 3420 cells, the RFP positive cells of 7000 sorted, Ai14 mouse ES reporter cells, promoter hbb + sp1, replicate 3 [1] was 3500 cells and the RFP positive cells of 7000 sorted, Ai14 mouse ES reporter cells, promoter hbb, replicate 1 [1] was 414 cells. For the same binder, the RFP positive cells of 7000 sorted, Ai14 mouse ES reporter cells, promoter hbb, replicate 2 [1] was 378 cells, the RFP positive cells of 7000 sorted, Ai14 mouse ES reporter cells, promoter hbb, replicate 3 [1] was 391 cells and the RFP positive cells of 7000 sorted, Ai14 mouse ES reporter cells, promoter hbb + cmv, replicate 1 [2] was 5870 cells. For the same binder, the RFP positive cells of 7000 sorted, Ai14 mouse ES reporter cells, promoter hbb + cmv, replicate 2 [2] was 6030 cells, the RFP positive cells of 7000 sorted, Ai14 mouse ES reporter cells, promoter hbb + cmv, replicate 3 [2] was 6360 cells and the RFP positive cells of 7000 sorted, Ai14 mouse ES reporter cells, promoter hbb + sp1, replicate 1 [2] was 5700 cells. For the same binder, the RFP positive cells of 7000 sorted, Ai14 mouse ES reporter cells, promoter hbb + sp1, replicate 2 [2] was 6120 cells, the RFP positive cells of 7000 sorted, Ai14 mouse ES reporter cells, promoter hbb + sp1, replicate 3 [2] was 5990 cells and the RFP positive cells of 7000 sorted, Ai14 mouse ES reporter cells, promoter hbb, replicate 1 [2] was 1120 cells. It also gave an RFP positive cells of 7000 sorted, Ai14 mouse ES reporter cells, promoter hbb, replicate 2 [2] of 1210 cells and an RFP positive cells of 7000 sorted, Ai14 mouse ES reporter cells, promoter hbb, replicate 3 [2] of 1320 cells.

— US20170058297A1
